Literature values as cited in article PMC7488126.
Values belong to the substance of their own block, whether it stands above or below them.

How the values were obtained:
CD48 (Homo sapiens) = CD48 (Homo sapiens) (UniProt P09326)
CD155 (Homo sapiens) = CD155 (Homo sapiens) (UniProt P15151)
CD112 (Homo sapiens) = CD112 (Homo sapiens) (UniProt Q92692)
B7H6 (Homo sapiens) = B7H6 (Homo sapiens) (UniProt Q68D85)
Sequence of UniProt Q68D85 (Q68D85 25-262): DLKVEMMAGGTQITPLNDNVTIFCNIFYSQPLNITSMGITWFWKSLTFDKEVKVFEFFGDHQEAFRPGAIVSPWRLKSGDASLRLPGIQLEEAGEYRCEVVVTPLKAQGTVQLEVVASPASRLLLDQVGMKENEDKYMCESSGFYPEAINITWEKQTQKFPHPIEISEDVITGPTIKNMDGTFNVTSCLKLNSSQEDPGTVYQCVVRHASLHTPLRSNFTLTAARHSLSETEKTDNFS

Sequence of UniProt P09326 (P09326 27-220): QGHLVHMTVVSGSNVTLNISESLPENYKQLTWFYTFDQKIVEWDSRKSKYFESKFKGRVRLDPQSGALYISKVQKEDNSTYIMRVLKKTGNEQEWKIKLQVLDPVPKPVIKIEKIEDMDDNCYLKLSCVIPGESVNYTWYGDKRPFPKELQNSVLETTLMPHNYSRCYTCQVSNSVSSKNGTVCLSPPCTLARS
Sequence of UniProt Q92692 (Q92692 32-360): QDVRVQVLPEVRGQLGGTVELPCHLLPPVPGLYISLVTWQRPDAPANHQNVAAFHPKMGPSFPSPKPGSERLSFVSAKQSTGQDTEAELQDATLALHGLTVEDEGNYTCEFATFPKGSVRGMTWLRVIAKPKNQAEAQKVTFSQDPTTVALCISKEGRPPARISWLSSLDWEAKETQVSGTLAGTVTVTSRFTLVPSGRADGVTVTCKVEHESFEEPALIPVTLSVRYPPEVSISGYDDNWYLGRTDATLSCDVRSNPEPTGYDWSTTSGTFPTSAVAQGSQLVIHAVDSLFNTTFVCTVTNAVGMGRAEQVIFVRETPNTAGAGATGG

Kd (CD48 (Homo sapiens)): 8 µM
Substance: 2B4 ECD (from UniProt Q9BZW8)

Kd (CD155 (Homo sapiens)): 0.23 µM | Kd (CD112 (Homo sapiens)): 0.31 µM
Substance: DNAM-1 (from UniProt Q15762)

Kd (B7H6 (Homo sapiens)): 1 µM
Substance: NKp30 Ig variable domain (from UniProt O14931)
